Experimental data taken from US20130136743A1 (LABORATOIRE FRANCAIS DU FRACTIONNEMENT ET DES …, published 2013).
Where a chain is given by its changes, count along the chain named. Names may count otherwise. Values belong to the binder of their own block, whether it stands above or below them.

How the values were obtained:
[1] = target: T1, AMHRII receptor expressed on cells (cov434-AMHRII, Asc 1, META 2815) (human, UniProt Q16671 18-573); assay: cell-based or functional assay
T1 sequence (looked up): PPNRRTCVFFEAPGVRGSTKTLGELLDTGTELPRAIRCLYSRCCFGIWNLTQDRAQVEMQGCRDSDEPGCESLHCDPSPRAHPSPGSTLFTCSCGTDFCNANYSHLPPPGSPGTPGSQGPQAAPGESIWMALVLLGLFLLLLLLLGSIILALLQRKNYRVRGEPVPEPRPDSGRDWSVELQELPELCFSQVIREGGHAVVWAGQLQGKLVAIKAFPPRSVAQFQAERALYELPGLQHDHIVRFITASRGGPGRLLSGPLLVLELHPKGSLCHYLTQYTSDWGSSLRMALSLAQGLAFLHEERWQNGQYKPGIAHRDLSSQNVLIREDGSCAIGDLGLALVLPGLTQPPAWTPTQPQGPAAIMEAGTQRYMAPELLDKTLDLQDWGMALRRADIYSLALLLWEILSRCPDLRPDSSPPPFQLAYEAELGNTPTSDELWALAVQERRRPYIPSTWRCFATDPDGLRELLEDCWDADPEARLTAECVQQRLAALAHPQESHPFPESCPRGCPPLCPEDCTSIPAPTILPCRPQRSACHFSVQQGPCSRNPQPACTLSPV

[2] = target: T1, AMHRII receptor expressed on cells …; assay: cell-based or functional assay; remark: listed apart in the source
[3] = target: T1, AMHRII receptor expressed on cells …; assay: saturation binding of 125I-labelled antibody to cov434-AMHRII cells, Scatchard analysis
Protocol: Briefly, KD was determined by the saturation method, by adding increasing doses of radiolabelled antibody to a constant number of cov434-AMHRII cells. […] For each antibody, fourfold dilutions were carried out in PBS/BSA 0.5% from the solutions of labelled and unlabelled antibody (84.4 μg/ml). The nonspecific fixation was evaluated by incubating the cells in the presence of a 100 times molar excess of unlabelled antibody.
After incubation, the samples were frozen in liquid nitrogen and then analysed in a gamma counter. The specific fixation was determined by subtracting the fixation obtained in the presence of an excess of unlabelled antibody.

[4] = target: T2, AMHR-II/Fc fusion protein (human, UniProt Q16671 18-149, limits assumed); assay: SPR, BIAcore X100; AMHR-II/Fc immobilised on CM5 chip, antibody injected; 25 C
T2 construct: also called AMHR-II recombinant receptor expressed in the form of fusion protein with a region Fc; recombinant target; not shown: Fc region
Protocol: (§1) The affinity of the antibodies for their antigen, AMHR-II, is determined by the SPR (Surface Plasmon Resonance) technique on BIACore X100 (BIACore, GE Healthcare). The AMHR-II recombinant receptor, expressed in the form of fusion protein with a region Fc, is immobilized by covalent coupling between its amine functions and the carboxyl groups of dextran activated in succinimide esters, present on the surface of the type CM5 sensor chip. The COOH groups of the sensor chip are activated for 7 minutes with EDC/NHS mixture (0.1 M of N-hydroxysuccinimide and 0.1 M of 3-(N,N-dimethylamino)propyl-N-ethylcarbodiimide) at a flow of 10 μl/min then the AMHR-II/Fc fusion protein, diluted to 5 μg/ml in 10 mM sodium acetate buffer, pH 4.0, is injected at […] on track 2 of the sensor chip so as to reach 300 RU. The ester groups that have not reacted with the amines of the fusion protein are deactivated by injection of a solution of ethanolamine-HCl 1M, pH 8.5 for 7 min at a flow of 10 μl:min. Track 1, serving as negative control, was activated and deactivated like track 2.
(§2) All the measurements are carried out at 25° C. The antibodies to be analysed are diluted in HBS-EP running buffer (BIACore, GE Healthcare) at concentrations from 6.25 to 3333 nM and injected on the sensor chip for 2 min at a flow of 30 μl/min. The dissociation step is monitored for 10 min and then the surface is regenerated by injection of 10 mM glycine buffer, pH 1.5 for 30 s at 10 μl/min.
(§3) The sensorgrams obtained are analysed using the 1:2 kinetic model of the BIAevaluation 3.1 software.

[5] = target: T2, AMHR-II/Fc fusion protein; assay: SPR, BIAcore X100; ratio against the chimeric 12G4
Protocol: as §1, §2, §3

[6] = target: T1, AMHRII receptor expressed on cells …; assay: cell-based or functional assay; remark: listed apart in the source
[7] = target: T3, Epitope peptide GGGGNLTQDRAQVEMQGSR; assay: method not stated; Example 2, heading names cov434-AMHR-II cells and the epitope peptide
T3 peptide: GGGGNLTQDRAQVEMQGSR

% of lysis of ASC1 cells (ADCC with NK cells, LDH release) at 0.001 ng/ml antibody [1]: 0%
% of lysis of ASC1 cells (ADCC with NK cells, LDH release) at 0.005 ng/ml antibody [1]: 8%
% of lysis of ASC1 cells (ADCC with NK cells, LDH release) at 0.05 ng/ml antibody [1]: 10%
% of lysis of ASC1 cells (ADCC with NK cells, LDH release) at 0.5 ng/ml antibody [1]: 26%
% of lysis of ASC1 cells (ADCC with NK cells, LDH release) at 5 ng/ml antibody [1]: 51%
% of lysis of ASC1 cells (ADCC with NK cells, LDH release) at 50 ng/ml antibody [1]: 67%
% of lysis of ASC1 cells (ADCC with NK cells, LDH release) at 500 ng/ml antibody [1]: 79%
% of lysis of ASC1 cells (ADCC with NK cells, LDH release) at 5000 ng/ml antibody [1]: 75%
50% relative, ADCC on the COV434-AMHRII line (chimeric antibody = 1) [2]: 0.84
EC50, ADCC on Asc 1 cells [2]: ~2.24 ng/mL
EC50, ADCC on META 2815 cells [2]: 30.5 ng/mL
Kd [3]: 5.3 nM
fold affinity against the original murine 12G4 antibody [3]: ~3 fold
Kd [4]: 21 nM
koff [4]: 0.00086 s⁻¹
kon [4]: 40000 M⁻¹ s⁻¹
KD chimeric/KD mutated [5]: 10
EC50 (ng/ml), ADCC on ASC1 cells [6]: 1.7 ng/mL
Emax (% of lysis), ADCC on ASC1 cells [6]: 79 % of lysis
B1: mutated humanized 12G4 antibody 3C-23K produced in YB2/0 (antibody, human IgG1, kappa, V domains shown)
VH: QVRLVQSGAEVKKPGASVKVSCKASGYTFTSYHIHWVRQAPGQRLEWMGWIYPGDDSTKYSQKFQGRVTITRDTSASTAYMELSSLRSEDTAVYYCTRGDRFAYWGQGTLVTVSS
VL: DIQMTQSPSTLSASVGDRVTITCRASSSVRYIAWYQQKPGKAPKLLTYPTSSLKSGVPSRFSGSGSGTEFTLTISSLQPDDFATYYCLQWSSYPWTFGGGTKVEIKR
notes: Chains without leader; also called 3C_23K YB2/0; 3C-23K-YB2/0
fold cytotoxic activity on Asc 1 cells against 3C-23K-CHO [2]: ~40 fold
fold cytotoxic activity on META 2815 cells against 3C-23K-CHO [2]: ~146 fold

EC50, ADCC on META 2815 cells [2]: 467 ng/mL
Kd [4]: 25 nM
koff [4]: 0.001 s⁻¹
kon [4]: 41000 M⁻¹ s⁻¹
KD chimeric/KD mutated [5]: 8.5
B2: mutated humanized 12G4 antibody 3C-23K produced in CHO (antibody, human IgG1, kappa, V domains shown)
VH: B1 VH
VL: B1 VL
notes: also called 3C_23K CHO; 3C-23K-CHO

% of lysis of ASC1 cells (ADCC with NK cells, LDH release) at 0.001 ng/ml antibody [1]: 0%
% of lysis of ASC1 cells (ADCC with NK cells, LDH release) at 0.005 ng/ml antibody [1]: 18%
% of lysis of ASC1 cells (ADCC with NK cells, LDH release) at 0.05 ng/ml antibody [1]: 2%
% of lysis of ASC1 cells (ADCC with NK cells, LDH release) at 0.5 ng/ml antibody [1]: 0%
% of lysis of ASC1 cells (ADCC with NK cells, LDH release) at 5 ng/ml antibody [1]: 7%
% of lysis of ASC1 cells (ADCC with NK cells, LDH release) at 50 ng/ml antibody [1]: 24%
% of lysis of ASC1 cells (ADCC with NK cells, LDH release) at 500 ng/ml antibody [1]: 50%
% of lysis of ASC1 cells (ADCC with NK cells, LDH release) at 5000 ng/ml antibody [1]: 50%
Kd [7]: 5260 nM
koff [7]: 0.00962 s⁻¹
kon [7]: 1830 M⁻¹ s⁻¹
EC50 (ng/ml), ADCC on ASC1 cells [6]: 52.4 ng/mL
Emax (% of lysis), ADCC on ASC1 cells [6]: 52.4 % of lysis
B3: unmutated humanized 12G4 monoclonal antibody (antibody, human IgG1, kappa, V domains shown)
VH: B1 VH with R3Q
VL: B1 VL with T47I, P49S, K54E
notes: Variable regions without leader joined to the constant regions; also called huLFB112; 632 07 107 Anti AMHRII hum 1st

% of lysis of ASC1 cells (ADCC with NK cells, LDH release) at 0.001 ng/ml antibody [1]: 0%
% of lysis of ASC1 cells (ADCC with NK cells, LDH release) at 0.005 ng/ml antibody [1]: 14%
% of lysis of ASC1 cells (ADCC with NK cells, LDH release) at 0.05 ng/ml antibody [1]: 5%
% of lysis of ASC1 cells (ADCC with NK cells, LDH release) at 0.5 ng/ml antibody [1]: 3%
% of lysis of ASC1 cells (ADCC with NK cells, LDH release) at 5 ng/ml antibody [1]: 28%
% of lysis of ASC1 cells (ADCC with NK cells, LDH release) at 50 ng/ml antibody [1]: 42%
% of lysis of ASC1 cells (ADCC with NK cells, LDH release) at 500 ng/ml antibody [1]: 48%
% of lysis of ASC1 cells (ADCC with NK cells, LDH release) at 5000 ng/ml antibody [1]: 53%
50% relative, ADCC on the COV434-AMHRII line (chimeric antibody = 1) [2]: 36.9
Kd [3]: 6.68 nM
Kd [4]: 82 nM
koff [4]: 0.0013 s⁻¹
kon [4]: 16000 M⁻¹ s⁻¹
KD chimeric/KD mutated [5]: 2.6
EC50 (ng/ml), ADCC on ASC1 cells [6]: 5.38 ng/mL
Emax (% of lysis), ADCC on ASC1 cells [6]: 51.9 % of lysis
B4: mutated humanized 12G4 antibody 6B-78 produced in YB2/0 (antibody, human IgG1, kappa, V domains shown)
VH: B1 VH with R3Q
VL: B1 VL with T47I, P49S
notes: Chains without leader; Mutation VL-E184K; also called 6B_78 YB2/0; R901 6B78

Kd [4]: 81 nM
koff [4]: 0.0012 s⁻¹
kon [4]: 15000 M⁻¹ s⁻¹
KD chimeric/KD mutated [5]: 2.6
B5: mutated humanized 12G4 antibody 6B-78 produced in CHO (antibody, human IgG1, kappa, V domains shown)
VH: B1 VH with R3Q
VL: B1 VL with T47I, P49S
notes: also called 6B_78 CHO

Kd [4]: 86 nM
koff [4]: 0.0043 s⁻¹
kon [4]: 50000 M⁻¹ s⁻¹
KD chimeric/KD mutated [5]: 2.5
B6: mutated humanized 12G4 antibody 3C-23 produced in CHO (antibody, human IgG1, kappa, V domains shown)
VH: B1 VH
VL: B1 VL with K54E
notes: also called 3C_23 CHO

% of lysis of ASC1 cells (ADCC with NK cells, LDH release) at 0.001 ng/ml antibody [1]: 0%
% of lysis of ASC1 cells (ADCC with NK cells, LDH release) at 0.005 ng/ml antibody [1]: 8%
% of lysis of ASC1 cells (ADCC with NK cells, LDH release) at 0.05 ng/ml antibody [1]: 9%
% of lysis of ASC1 cells (ADCC with NK cells, LDH release) at 0.5 ng/ml antibody [1]: 13%
% of lysis of ASC1 cells (ADCC with NK cells, LDH release) at 5 ng/ml antibody [1]: 35%
% of lysis of ASC1 cells (ADCC with NK cells, LDH release) at 50 ng/ml antibody [1]: 46%
% of lysis of ASC1 cells (ADCC with NK cells, LDH release) at 500 ng/ml antibody [1]: 52%
% of lysis of ASC1 cells (ADCC with NK cells, LDH release) at 5000 ng/ml antibody [1]: 63%
50% relative, ADCC on the COV434-AMHRII line (chimeric antibody = 1) [2]: 6.41
Kd [3]: 7.33 nM
Kd [4]: 92 nM
koff [4]: 0.0033 s⁻¹
kon [4]: 36000 M⁻¹ s⁻¹
KD chimeric/KD mutated [5]: 2.3
EC50 (ng/ml), ADCC on ASC1 cells [6]: 6.3 ng/mL
Emax (% of lysis), ADCC on ASC1 cells [6]: 65.5 % of lysis
B7: mutated humanized 12G4 antibody 3C-23 produced in YB2/0 (antibody, human IgG1, kappa, V domains shown)
VH: B1 VH
VL: B1 VL with K54E
notes: Chains without leader; Mutations VH-Q3R, VL-I177T/S179P; also called 3C_23 YB2/0; R901 3C23

Kd [7]: ~100 nM
koff [7]: 0.00147 s⁻¹
Kd [3]: 15.4 nM
B8: murine 12G4 monoclonal antibody (antibody, V domains shown)
VH: QVQLQQSGPELVKPGASVRMSCKASGYTFTSYHIHWVKQRPGQGLEWIGWIYPGDDSTKYNEKFKGKTTLTADKSSSTAYMLLSSLTSEDSAIYFCTRGDRFAYWGQGTLVTVSA
VL: QIVLTQSPAIMSASLGEGITLTCSASSSVRYIHWYQQKSGTSPKLLIYSTSNLASGVPSRFSGSGSGTFHSLTISSVEAEDAADYYCLQWSSYPWTFGGGTKLEIK
notes: also called mLFB112; original murine 12G4 antibody
